Patent US20230406921A1

Experiments:
[1] = molecular target: CD47 on the surface of tumor cells (human) (UniProt Q08722); experiment: FACS, SKOV-3 tumor cells, control antibody, 100 nM
[2] = molecular target: CD47 on the surface of human red blood cells (human) (UniProt Q08722); experiment: FACS, human red blood cells, control antibody, 1000 nM

human IgG4 (antibody)
Binding to tumor cells (MFI) [1]: 4640 MFI
Binding to human red blood cells (MFI) [2]: 797 MFI
